According to patent publication US20070010428A1, “Inhibitors of signal transduction and activator of transcription 3” (priority 2004, published 2007):
Blank lines part the entries; values can stand above or below the binder they belong to. [ ]: non-standard residue; d: D form. pY = N[C@@H](Cc1ccc(OP(=O)(O)O)cc1)C(=O)O

Columns and labels:
[1] = molecular target: full length Stat3, P40763; experiment: fluorescence polarization, full length Stat3 titrated into the FP probe
[2] = molecular target: Stat3 (as in the EMSA of Table 1), P40763; experiment: EMSA: inhibition of Stat3 dimerization and DNA binding, average of two determinations
Chain of Stat3 (as in the EMSA of Table 1), P40763 (P40763 whole entry): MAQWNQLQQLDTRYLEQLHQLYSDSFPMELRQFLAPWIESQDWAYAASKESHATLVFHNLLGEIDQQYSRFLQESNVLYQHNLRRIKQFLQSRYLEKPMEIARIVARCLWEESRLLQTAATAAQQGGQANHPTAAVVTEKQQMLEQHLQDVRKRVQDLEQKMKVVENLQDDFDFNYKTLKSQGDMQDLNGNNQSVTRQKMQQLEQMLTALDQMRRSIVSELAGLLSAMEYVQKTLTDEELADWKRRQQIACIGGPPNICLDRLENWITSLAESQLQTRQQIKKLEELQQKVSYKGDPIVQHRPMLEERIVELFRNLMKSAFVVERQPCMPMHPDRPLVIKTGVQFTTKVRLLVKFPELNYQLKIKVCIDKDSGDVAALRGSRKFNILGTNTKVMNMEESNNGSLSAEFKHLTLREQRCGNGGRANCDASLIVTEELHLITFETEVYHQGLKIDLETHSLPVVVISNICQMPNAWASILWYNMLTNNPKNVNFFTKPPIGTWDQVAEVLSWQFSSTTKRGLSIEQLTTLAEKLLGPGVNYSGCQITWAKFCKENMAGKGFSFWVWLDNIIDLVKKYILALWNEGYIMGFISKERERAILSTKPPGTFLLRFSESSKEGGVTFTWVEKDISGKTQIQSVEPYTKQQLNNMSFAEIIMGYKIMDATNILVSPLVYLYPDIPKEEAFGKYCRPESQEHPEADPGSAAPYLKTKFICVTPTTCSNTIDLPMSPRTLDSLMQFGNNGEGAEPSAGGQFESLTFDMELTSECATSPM

Chain of full length Stat3, P40763 (P40763 whole entry): as above

Binder: {fluorescein‑5‑carboxyl}-A[pY]LPQTV-NH2 [fluorescein-5-carboxyl-Ala-pTyr-Leu-Pro-Gln-Thr-Val-NH2]
- Kd [1]: 0.05 µM

Binder: YHNQPL (modifications not checked) [Ac-Y(p)HNQPL-NH2 (EGFR Tyr 1086 hexapeptide)]
- IC50 [2]: 150 µM

Further binders by falling IC50 [2], results first:

- IC50 [2]: 30 µM
Binder: YINQSV (modifications not checked) [Ac-Y(p)INQSV-NH2 (EGFR Tyr 1068 hexapeptide)]

- IC50 [2]: 20 µM
B1: Ac-pTyr-Leu-Lys-Thr-Lys-Phe-NH2 (peptide)
chain: Ac-[pY]LKTKF-NH2
SMILES: CC(=O)N[C@@H](Cc1ccc(OP(=O)(O)O)cc1)C(=O)N[C@@H](CC(C)C)C(=O)N[C@@H](CCCCN)C(=O)N[C@H](C(=O)N[C@@H](CCCCN)C(=O)N[C@@H](Cc1ccccc1)C(N)=O)[C@@H](C)O
